This is an account of results in paper PMC11920956.

Usually pKa stands for the pH at which an ionisable group is half protonated.

Series [1] addresses Lys4 (position 4, --VERKEG---). The experiment in a line: potentiometry. As to conditions: 298 K, 0.1 M NaClO4.
The next series addresses Tyr16 (position 16, …-). The experiment in a line: potentiometry. To be noted: 298 K; 0.1 M NaClO4; none (4 mM HClO4, 0.5 mM peptide); free peptide, no metal.

B1: L2, peptide model of the ExxE motif of the NFeoB domain of FeoB (residues 38-43) (Escherichia coli K12) (peptide)
chain: VERKEG
B1: the pKa in series [1] (none (4 mM HClO4, 0.5 mM peptide), free peptide, no metal) came out at 9.92; in series [1] (none (4 mM HClO4, 0.5 mM peptide, Mohr's salt as Fe(II) source), Fe(II) present, Fe(II):L = 1:1.1, step [FeLH-3]2- to [FeLH-4]3- of the 1:1 Fe(II):L2 complex), 9.87.

B2: L1, peptide model of the Core CFeoB region of FeoB (residues 477-496) (Escherichia coli K12) (peptide)
chain: IMRGEATPFVMELPVYHVPH
Regarding B2, the pKa with Tyr16 (position 16, …-) is reported as 9.67.
